The source of these data is paper PMC314469, “Protein Interaction Networks by Proteome Peptide Scanning” (PLoS Biology, 2004).

B1: YBR044C 356-369 (peptide)
chain: EYSPLVPSKMSADK
B2: YAL051W 638-651 (peptide)
chain: ENFPIVPLKSVAQD
B3: YDL180W 234-247 (peptide)
chain: EYHPIKPLRSSSST
B4: YLR306W 88-101 (peptide)
chain: EVYPIEPPKVVSLK
B5: YPR141C 2-15 (peptide)
chain: ESLPRTPTKGRSTQ
B6: YNL022C 436-449 (peptide)
chain: EVIPSWPRRGKVEE
B7: YJR068W 127-140 (peptide)
chain: ENYPSPPYKIIILD
B8: YBR073W 41-54 (peptide)
chain: ENKPFKPPRRVGSN
B9: YDL002C 88-101 (peptide)
chain: ERDPNMPKRPTNAY
B10: YDR174W 100-113 (peptide)
chain: ERDPNAPKKPLTVF
B11: YML071C 475-488 (peptide)
chain: EVTPEEPSKSIDNK
B12: YER132C 1359-1372 (peptide)
chain: ETVPTEPTRYNYQN
B13: YHR176W 81-94 (peptide)
chain: ENVPLYPSRRNIWE
B14: YGR237C 591-604 (peptide)
chain: EYFPISPEKKEEME
B15: YIR003W 4-17 (peptide)
chain: EVTPKVPERPSRRK
B16: YHR108W 549-562 (peptide)
chain: ENAPANPSKALKVK
B17: YPR174C 153-166 (peptide)
chain: ENLPPSPVRAVNPL
B18: YML071C 500-513 (peptide)
chain: EVTPEEPSKKIRTS
B19: YDR507C 687-700 (peptide)
chain: EVSPVEPKRTENER

The first assay concerns the target T1, Yhr016c SH3 (YSC84_YEAST), P32793.
T1 chain: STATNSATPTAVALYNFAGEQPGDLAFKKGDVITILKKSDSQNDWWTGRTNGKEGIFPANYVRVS
The experiment in a line: SPOT array.
B1 displayed a normalised SPOT signal, Boehringer light units (BLU); mean over the file's lines of this peptide of 177.
Same read-out and setting: the result for B2 reads 100; that for B3, 762; that for B4, 85.5.
B5 gave a normalised SPOT signal, Boehringer light units (BLU); mean over the file's lines of this peptide of 211.
On the same count and under the same terms, the value for B6 was 138; that for B7 was 86.3.
Same read-out and setting: the result for B8 reads 8330.
The same measure, in the same setting: the value for B9 was 339; that for B10 was 274; that for B11 was 105.
B12 returned a normalised SPOT signal, Boehringer light units (BLU); mean over the file's lines of this peptide of 53.7.
Still for that read-out and setting: the result for B13 reads 4510; that for B14, 242.
The molecule B15 yielded a normalised SPOT signal, Boehringer light units (BLU); mean over the file's lines of this peptide of 18500.
The same measure, in the same setting: the value for B16 was 209.
Same read-out and setting: the result for B17 reads 0; that for B18, 124; that for B19, 83.5.

The next assay concerns the target T2, Yfr024 SH3 (LSB3_YEAST), P43603.
T2 chain: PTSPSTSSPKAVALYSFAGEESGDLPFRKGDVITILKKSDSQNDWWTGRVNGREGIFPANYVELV
The experiment in a line: SPOT array.
The molecule B1 showed a normalised SPOT signal, Boehringer light units (BLU); mean over the file's lines of this peptide of 370.
On the same count and under the same terms, the result for B2 reads 377; that for B3, 3150; that for B4, -0.
On the same count and under the same terms, the result for B5 reads 2200; that for B6, 923.
Same read-out and setting: the value for B7 was 56.9; that for B8 was 23100; that for B9 was 1640.
B10: the normalised SPOT signal, Boehringer light units (BLU); mean over the file's lines of this peptide turned out to be 94.1.
The same measure, in the same setting: the value for B11 was 0; that for B12 was 24.9; that for B13 was 15000.
B14 returned a normalised SPOT signal, Boehringer light units (BLU); mean over the file's lines of this peptide of 0.
Same read-out and setting: the result for B15 reads 59100.
B16 returned a normalised SPOT signal, Boehringer light units (BLU); mean over the file's lines of this peptide of 34.4.
On the same count and under the same terms, the result for B17 reads 156; that for B18, 15.
On the same count and under the same terms, the result for B19 reads 72.

In a further assay the target is T3, Boi2 SH3 (BOI2_YEAST), P39969.
T3 chain: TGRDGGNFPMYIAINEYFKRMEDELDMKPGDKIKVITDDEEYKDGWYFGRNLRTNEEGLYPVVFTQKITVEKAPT
The experiment in a line: SPOT array.
The molecule B1 displayed a normalised SPOT signal, Boehringer light units (BLU); mean over the file's lines of this peptide of 56.6.
For the molecule B2, the normalised SPOT signal, Boehringer light units (BLU); mean over the file's lines of this peptide is 9.5.
Still for that read-out and setting: the result for B3 reads 29.9; that for B4, 26.4; that for B5, 26.1.
With B6, the normalised SPOT signal, Boehringer light units (BLU); mean over the file's lines of this peptide is 26.
Consider B7, for which the normalised SPOT signal, Boehringer light units (BLU); mean over the file's lines of this peptide was found to be 34.9.
Molecule B8 had a normalised SPOT signal, Boehringer light units (BLU); mean over the file's lines of this peptide of 3.6.
The same measure, in the same setting: the value for B9 was 31.7; that for B10 was 34.6; that for B11 was 0.
B12 returned a normalised SPOT signal, Boehringer light units (BLU); mean over the file's lines of this peptide of 55.5.
Take B13: the normalised SPOT signal, Boehringer light units (BLU); mean over the file's lines of this peptide turned out to be 19.2.
On the same count and under the same terms, the result for B14 reads 15.3; that for B15, 493.
Turning to B16, the normalised SPOT signal, Boehringer light units (BLU); mean over the file's lines of this peptide turned out to be 34.7.
Still for that read-out and setting: the result for B17 reads 42.8; that for B18, 20.1; that for B19, 41.7.

Another assay concerns the target T4, Rvs167 SH3 (RV167_YEAST), P39743.
T4 chain: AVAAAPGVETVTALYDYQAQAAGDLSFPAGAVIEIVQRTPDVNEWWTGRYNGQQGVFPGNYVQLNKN
The experiment in a line: SPOT array.
Consider B1, for which the normalised SPOT signal, Boehringer light units (BLU); mean over the file's lines of this peptide came to 202.
The molecule B2 gave a normalised SPOT signal, Boehringer light units (BLU); mean over the file's lines of this peptide of 125.
B3 returned a normalised SPOT signal, Boehringer light units (BLU); mean over the file's lines of this peptide of 48.4.
In turn, B4 gave a normalised SPOT signal, Boehringer light units (BLU); mean over the file's lines of this peptide of 9.
Same read-out and setting: the result for B5 reads 34.8; that for B6, 34.7; that for B7, 35.7.
For B8, the normalised SPOT signal, Boehringer light units (BLU); mean over the file's lines of this peptide stood at 232.
The molecule B9 yielded a normalised SPOT signal, Boehringer light units (BLU); mean over the file's lines of this peptide of 64.8.
Still for that read-out and setting: the result for B10 reads 59.7; that for B11, 19.5; that for B12, 26.9.
B13 returned a normalised SPOT signal, Boehringer light units (BLU); mean over the file's lines of this peptide of 88.9.
The molecule B14 had a normalised SPOT signal, Boehringer light units (BLU); mean over the file's lines of this peptide of 32.5.
The same measure, in the same setting: the value for B15 was 2090; that for B16 was 68; that for B17 was 28.7.
In the case of B18, the normalised SPOT signal, Boehringer light units (BLU); mean over the file's lines of this peptide stood at 15.5.
For B19, the normalised SPOT signal, Boehringer light units (BLU); mean over the file's lines of this peptide turned out to be 47.2.

The target of the next assay is T5, Boi1 SH3 (BOI1_YEAST), P38041.
T5 chain: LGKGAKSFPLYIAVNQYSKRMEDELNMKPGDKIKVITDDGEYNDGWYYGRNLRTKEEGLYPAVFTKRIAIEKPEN
The experiment in a line: SPOT array.
In turn, B1 yielded a normalised SPOT signal, Boehringer light units (BLU); mean over the file's lines of this peptide of 103.
In the case of B2, the normalised SPOT signal, Boehringer light units (BLU); mean over the file's lines of this peptide came out at 94.
In turn, B3 gave a normalised SPOT signal, Boehringer light units (BLU); mean over the file's lines of this peptide of 56.4.
The same measure, in the same setting: the value for B4 was 48.7.
Still for that read-out and setting: the result for B5 reads 455.
B6 had a normalised SPOT signal, Boehringer light units (BLU); mean over the file's lines of this peptide of 51.2.
On the same count and under the same terms, the value for B7 was 160; that for B8 was 339.
Turning to B9, the normalised SPOT signal, Boehringer light units (BLU); mean over the file's lines of this peptide amounted to 125.
As for B10, the normalised SPOT signal, Boehringer light units (BLU); mean over the file's lines of this peptide worked out at 75.6.
Still for that read-out and setting: the value for B11 was 25.1; that for B12 was 112; that for B13 was 764.
The same measure, in the same setting: the result for B14 reads 120; that for B15, 5160.
Still for that read-out and setting: the value for B16 was 21.4; that for B17 was 85; that for B18 was 52.7.
B19 came in with a normalised SPOT signal, Boehringer light units (BLU); mean over the file's lines of this peptide of 80.7.
